Measured values from publication doi:10.1101/2020.06.23.167452v1 (biorxiv, 2020).

T1: TcAK (arginine kinase from Trypanosoma cruzi) (Trypanosoma cruzi, UniProt O96507)
T1 sequence (O96507 1-357): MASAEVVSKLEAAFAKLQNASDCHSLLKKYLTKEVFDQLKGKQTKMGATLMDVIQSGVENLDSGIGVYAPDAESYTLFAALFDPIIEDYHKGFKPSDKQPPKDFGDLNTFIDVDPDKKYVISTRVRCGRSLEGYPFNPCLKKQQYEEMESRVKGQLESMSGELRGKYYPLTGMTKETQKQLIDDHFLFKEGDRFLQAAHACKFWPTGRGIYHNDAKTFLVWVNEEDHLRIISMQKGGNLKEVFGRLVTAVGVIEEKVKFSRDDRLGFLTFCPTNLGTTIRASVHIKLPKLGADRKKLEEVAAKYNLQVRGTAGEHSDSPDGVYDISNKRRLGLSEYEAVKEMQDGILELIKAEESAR


How the values were obtained:
[1] = biological target: T1, TcAK (arginine kinase from Trypanosoma cruzi); test: coupled pyruvate kinase / lactate dehydrogenase assay, NADH at […] nm; type: biochemical
purified protein [2] = substrate: N=C(N)NCCC[C@H](N)C(=O)O; test: purified protein; conditions: no delphinidin, ATP 1.5 mM, 1.5 mM MgCl2, Tris-HCl pH 8.2
purified protein [3] = substrate: Nc1ncnc2c1ncn2[C@@H]1O[C@H](COP(=O)(O)OP(=O)(O)OP(=O)(O)O)[C@@H](O)[C@H]1O; test: purified protein; conditions: no delphinidin, arginine 10 mM, 1.5 mM MgCl2, Tris-HCl pH 8.2

Ki [1] | Molecule | Km (purified protein [2]) | Km (purified protein [3])
1320 nM | Oc1cc(O)c2cc(O)c(-c3cc(O)c(O)c(O)c3)[o+]c2c1 [delphinidin] |  | 
 | TcAK (arginine kinase from Trypanosoma cruzi) (Trypanosoma cruzi) (protein) MASAEVVSKLEAAFAKLQNASDCHSLLKKYLTKEVFDQLKGKQTKMGATLMDVIQSGVENLDSGIGVYAPDAESYTLFAALFDPIIEDYHKGFKPSDKQPPKDFGDLNTFIDVDPDKKYVISTRVRCGRSLEGYPFNPCLKKQQYEEMESRVKGQLESMSGELRGKYYPLTGMTKETQKQLIDDHFLFKEGDRFLQAAHACKFWPTGRGIYHNDAKTFLVWVNEEDHLRIISMQKGGNLKEVFGRLVTAVGVIEEKVKFSRDDRLGFLTFCPTNLGTTIRASVHIKLPKLGADRKKLEEVAAKYNLQVRGTAGEHSDSPDGVYDISNKRRLGLSEYEAVKEMQDGILELIKAEESAR | 810 ± 330 µM | 200 ± 330 µM
